How the values were obtained:
[1] = molecular target: c-kit proto-oncogene (receptor of KL) on human cells (human, UniProt P10721); test: cell-based or functional assay
[2] = molecular target: c-kit proto-oncogene (receptor of KL) on murine cells (murine, UniProt P05532); test: cell-based or functional assay

B1: murine covalent dimer kit ligand (KL-CD), biologically active form (ligand)
chain: MMKKTQTWIITCIYLQLLLFNPLVKTKEICGNPVTDNVKDITKLVANLPNDYMITLNYVAGMDVLPSHCWLRDMVIQLSLSLTTLLDKFSNISEGLSNYSIIDKLGKIVDDLVLCMEENAPKNIKESPKRPETRSFTPEEFFSIFNRSIDAFKDFMVASDTSDCV
modifications: at least one intermolecular disulfide bond between one of the four cysteines (4, 43, 89, 138) of one monomer and one of the four cysteines of the other monomer; which cysteines is not determined
proliferation of human cell lines (M07e), 3H-thymidine incorporation [1]: 10 fold
proliferation of murine mast cells (BMMC), 3H-thymidine incorporation [2]: 10 fold

From patent US5525708, “Covalent dimer of kit ligand” (CytoMed, Inc., dated 1996)
